Columns and labels:
fibrin = experiment: binding of tPA variants to a solid-phase fibrin surface on PVC plates (3 independent experiments, 12 doses)
[1] = molecular target: N-methyl-D-aspartate receptor on primary cultured mouse cortical neurons (mouse) (UniProt P35438); experiment: cell-based or functional assay

Substance | Kd (fibrin) | neuronal death (LDH release, cortical neurons, 50 uM NMDA, 0.3 uM tPA) [1] | potentiation of NMDAR-mediated excitotoxicity (LDH release, cortical neurons, 50 uM NMDA, 0.3 uM tPA) [1]
rat tPA with complete deletion of its K2 domain (deletion of the amino acids 181 to 262), 6xHis-tagged (from UniProt P19637 33-212; P19637 295-559) (enzyme) | 0.82 nM | – | –
rat wild type tPA (Rattus norvegicus), 6xHis-tagged (from UniProt P19637 33-559) (enzyme) | – | 71% | 39%
